Experimental findings from patent US20230102344A1 (published 2023) are described below.

A word on the EC50: it is the concentration at which the effect is half-maximal. Read a low EC50 as a more potent agent.

In assay [1] the target is T1, TCRvβ 6-5 expressed on cells (TCRvβ 6-5+ Jurkat cells; human T cells) (human).
T1 chain: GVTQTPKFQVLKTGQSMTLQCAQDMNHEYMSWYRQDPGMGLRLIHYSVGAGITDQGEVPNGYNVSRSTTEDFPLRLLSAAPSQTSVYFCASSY
Put plainly: cell binding.

Assay [2] concerns the target CD33 expressed on cells (MOLM-13, MV411, HL60) (human, UniProt P20138 18-364). As to the kind of experiment: cell binding.
In assay [3] the target is T1, TCRvβ 6-5 expressed on cells (TCRvβ …). As to the kind of experiment: FACS cell binding.

Sequence of CD33 expressed on cells (MOLM-13, MV411, HL60) (P20138 18-364): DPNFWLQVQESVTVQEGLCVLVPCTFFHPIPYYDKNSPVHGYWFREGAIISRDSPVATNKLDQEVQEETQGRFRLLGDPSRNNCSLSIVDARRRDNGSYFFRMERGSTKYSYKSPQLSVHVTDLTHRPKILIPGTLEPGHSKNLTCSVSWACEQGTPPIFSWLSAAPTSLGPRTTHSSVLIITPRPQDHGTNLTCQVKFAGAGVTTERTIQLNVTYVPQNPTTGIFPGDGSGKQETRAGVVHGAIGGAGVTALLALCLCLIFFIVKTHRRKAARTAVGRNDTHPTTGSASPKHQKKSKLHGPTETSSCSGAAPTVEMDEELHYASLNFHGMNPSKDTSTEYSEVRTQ

B1: BJM0387 (bispecific antibody)
heavy: QVQLVQSGAEVKKPGSSVKVSCKASGYSFTTYYIHWVRQAPGQGLEWMGWFFPGSGNIKYNEKFKGRVTITADTSTSTAYMELSSLRSEDTAVYYCAGSYYSYDVLDYWGQGTTVTVSSGGGGSGGGGSGGGGSGGGGSDIQMTQSPSFLSASVGDRVTITCKASQNVGINVVWHQQKPGKAPKALIYSSSHRYSGVPSRFSGSGSGTEFTLTISSLQPEDFATYFCQQFKSYPLTFGQGTKLEIKGGGGSQVQLVQSGAEVKKPGSSVKVSCKASGYTFTDYNMHWVRQAPGQGLEWIGYIYPYNGGTGYNQKFKSKATITADESTNTAYMELSSLRSEDTAVYYCARGRPAMDYWGQGTLVTVSS
light: DIQMTQSPSSLSASVGDRVTITCRASESVDNYGISFMNWFQQKPGKAPKLLIYAASNQGSGVPSRFSGSGSGTDFTLTISSLQPDDFATYYCQQSKEVPWTFGQGTKVEIK
Take B1: the values for the 50% effective concentration (EC50) in assay [1], in assay [2] and in assay [3] were 0.91 nM, 0.13 nM and 0.908 nM, respectively.
